Bridges are numbered along the chain shown (N, C = ends).
How the values were obtained:
[1] = test system: IMR90 human fetal lung fibroblasts; experiment: Fibrosis assay: active TGF-β levels in TGF-β treated fibroblasts (ELISA); assay type: cell-based; details: % inhibition relative to positive control
Protocol: Compounds 132, 133, 135, 150, 152, 157-161, 265-269, 275, 277, and 278 were evaluated for their ability to inhibit fibrosis. IMR90 human fetal lung fibroblasts were obtained from ATCC and maintained in DMEM supplemented with 10% fetal bovine serum. In order to examine the effect of peptides on myofibroblast differentiation, 80% confluent cultures were serum starved overnight prior to addition of TGF-β (2 ng/mL, R&D Systems). Cells were treated with TGF-β for 24 hours prior to addition of peptides (10 ng/mL). 48 hours after addition of peptides, culture supernatants were collected and levels of active TGF-β measured using commercially available TGF-β ELISA (Quantikine, R&D Systems).
Values are the Mean and SDM n=3 replicates. *p<0.05, **p<0.01, ***p<0.001 when compared to the +TGFβ1 control. In FIG. 47, where bars are labeled with two compound numbers (“133/150” and “135/152”) this means that the data were pooled for the indicated compounds, i.e., for the non-acetylated and acetylated versions of the indicated peptides.

[2] = Circular dichroism (CD) spectroscopy of linear and stapled peptides in water or 40% TFE/water (Example 3); assay type: physicochemical; details: for [0]208 mean residue ellipticity: λ = 208 nm; for [0]222 mean residue ellipticity: λ = 222 nm
Protocol: CD spectra were obtained on a Jasco J-810 spectropolarimeter and recorded in the range of 180-260 nm. Peptide solutions were prepared with a 0.1M phosphate buffer solution to a concentration of 0.5 mM. The measurements were performed in quartz cuvettes with a path length of 1 mm and a scanning speed of 10-50 nm/min. Five individual data points were averaged by the instrument in order to obtain the reported CD spectrum. The measurements were carried out at 20° C. A blank solution of 0.1M phosphate buffer solution was run before every measurement in order to baseline correct for any UV-interference observed from the buffer.
CD data for the 14- and 15-mer peptides containing HABD2 (VSKLRSQLVKRKQN, SEQ ID NO: 2) and HABD1 (NLKQKIKHVVKLKDE, SEQ ID NO: 4) and cyclized derivatives thereof in water or 40% TFE/water are provided below in Tables 8 (water) and 9 (40% TFE/water). Tables 8 and 9 provide the mean residue ellipicity ([θ] deg cm^2 dmol^−1) at λ=222 and 208 nm for each peptide and ratios of ellipticities at 222/208. Each of the peptides was acetylated at its amino terminus and amidated at its carboxy terminus.
CD data for linear peptides having the sequences […] (SEQ ID NO: 5) and […] (SEQ ID NO: 6) and cyclized derivatives thereof in water or 40% TFE/water are provided below in Tables 12 (water) and 13 (40% TFE/water). Tables 12 and 13 provide the mean residue ellipicity ([0] deg cm^2 dmol^−1) at λ=222 and 208 nm for each peptide and ratios of ellipticities at 222/208. Each of the peptides was acetylated at its amino terminus and amidated at its carboxy terminus.
Circular Dichroism (CD) spectroscopy is a tool that is used to study the secondary structure characteristics of a compound. Peptides and proteins can fold into organized structures, such as alpha helices and beta sheets, which are the result of complex hydrogen bonding and other interactions between amino acid side chains, as well as adopt a random coil formation, which lacks much of the organization of the other two structures. The CD spectrum of an alpha helix is characterized by two local minima at 208 nm and 222 nm. The ratio of the values of the molar ellipticities at these wavelengths ([θ]222/[θ]208) is a strong indication of the relative helicity of a compound; a compound is more helical when the ratio of these two values approaches 1.0. Synthetic constraints introduced to the peptide backbone can force a peptide chain to increase its helical character. These constraints can be introduced by staples, of varying types, which allow cyclization of the peptide backbone to take place.

[3] = Function blocking score: total percent inhibition over migration, invasion, inflammation and fibrosis assays divided by number of assays; assay type: cell-based; details: for Function blocking score (FBS): total percent inhibition for all assays tested divided by number of assays
Protocol: As documented in the Examples hereinabove, a variety of cyclized peptides were produced that contained the HA-binding domain 1 (HABD1), HA-binding domain 2 (HABD2), or both HABD1 and HABD2. These peptides were evaluated for helicity, direct HA binding and in a number of cell-based bioassays (effects on migration, invasion, NFkB activation, and TGFβ1 production) that are relevant to inflammation and fibrosis. The relationships amongst helicity, HA-binding, and biofunction were evaluated. Peptides were divided into three groups for this analysis: (1) peptides containing HABD1 (“HABD1”); (2) peptides containing HABD2 (“HABD2”); and peptides containing most or all of HABD1 and all of HABD2 (“HABD1+HABD2”). R^2 values were calculated to quantify the relationships between helicity, HA-binding, and biofunction were evaluated.
The results of this analysis for the HABD1 peptides are shown below in Tables 15 and 16. Table 16 provides a function blocking scores for each of the tested peptides and provides R^2 values showing the relationship between HA binding and helicity (“HA binding vs. CD”), HA binding and function-blocking score (“HA binding vs. FBS”) and helicity vs. function-blocking score (“CD vs. FBS”). The same type of summaries are provided for the HABD2 peptides in Tables 17 and 18 below, and for the HABD1+HABD2 peptides in Tables 19 and 20 below.
Function blocking scores were calculated as the total percent inhibition achieved by the peptide for all assays the peptides were tested in, divided by the number of assays. Assays included migration, invasion, inflammation and fibrosis assays. Not all peptides were tested all of the assays. All peptides were included for deriving R^2 values (Pearson's formula).

[4] = [θ]222/[θ]208 ratio in water, summary tables 15, 17, 19
[5] = as repeated in tables 16, 18, 20

Substance | Fibrosis (% inhib.) [1] | [θ]222/[θ]208 ratio of ellipticities [2, 4] | [θ]222/[θ]208 ratio of ellipticities [2, 5] | [0]222/[0]208 ratio of ellipticities ([2]; in 40% TFE/water) | [0]222/[0]208 ratio of ellipticities ([2]; in water) | alpha-helical character by CD (in words) ([2]; in water) | [0]208 mean residue ellipticity ([2]; in 40% TFE/water) | [0]208 mean residue ellipticity ([2]; in water) | [0]222 mean residue ellipticity ([2]; in 40% TFE/water) | [0]222 mean residue ellipticity ([2]; in water) | Function blocking score (FBS) [3] | function blocking (in words) [3]
Ac-(cyclo-4,8)-NLK[EKIKK]VVKLKDE-NH2 (Ac-NLKEKIKKVVKLKDE-NH2; lactam 4-8; SMILES CC[C@H](C)[C@@H]1NC(=O)[C@H](CCCCN)NC(=O)[C@@H](NC(=O)[C@H](CCCCN)NC(=O)[C@H](CC(C)C)NC(=O)[C@H](CC(N)=O)NC(C)=O)CCC(=O)NCCCC[C@@H](C(=O)N[C@H](C(=O)N[C@H](C(=O)N[C@@H](CCCCN)C(=O)N[C@@H](CC(C)C)C(=O)N[C@@H](CCCCN)C(=O)N[C@@H](CC(=O)O)C(=O)N[C@@H](CCC(=O)O)C(N)=O)C(C)C)C(C)C)NC(=O)[C@H](CCCCN)NC1=O) [Compound 157] | 38 % inhib. | 0.38 | 0.38 | 0.80 | 0.38 | decreased helicity | -1.56E+04 deg cm^2 dmol^−1 | -6.40E+03 deg cm^2 dmol^−1 | -1.25E+04 deg cm^2 dmol^−1 | -2.46E+03 deg cm^2 dmol^−1 | 8.6 | 
Ac-(cyclo-4,8)-VSK[ERSQK]VKRKQN-NH2 (Ac-VSKERSQKVKRKQN-NH2; lactam 4-8; SMILES CC(=O)N[C@H](C(=O)N[C@@H](CO)C(=O)N[C@@H](CCCCN)C(=O)N[C@H]1CCC(=O)NCCCC[C@@H](C(=O)N[C@H](C(=O)N[C@@H](CCCCN)C(=O)N[C@@H](CCCNC(=N)N)C(=O)N[C@@H](CCCCN)C(=O)N[C@@H](CCC(N)=O)C(=O)N[C@@H](CC(N)=O)C(N)=O)C(C)C)NC(=O)[C@H](CCC(N)=O)NC(=O)[C@H](CO)NC(=O)[C@H](CCCNC(=N)N)NC1=O)C(C)C) [Compound 150] | 31 % inhib. | 0.53 | 0.53 | 0.81 | 0.53 | decreased helicity | -1.21E+04 deg cm^2 dmol^−1 | -6.30E+03 deg cm^2 dmol^−1 | -9.75E+03 deg cm^2 dmol^−1 | -3.35E+03 deg cm^2 dmol^−1 | 27 | 
Ac-(cyclo-5,9)-NLKQ[EIKHK]VKLKDE-NH2 (Ac-NLKQEIKHKVKLKDE-NH2; lactam 5-9; SMILES CC[C@H](C)[C@@H]1NC(=O)[C@@H](NC(=O)[C@H](CCC(N)=O)NC(=O)[C@H](CCCCN)NC(=O)[C@H](CC(C)C)NC(=O)[C@H](CC(N)=O)NC(C)=O)CCC(=O)NCCCC[C@@H](C(=O)N[C@H](C(=O)N[C@@H](CCCCN)C(=O)N[C@@H](CC(C)C)C(=O)N[C@@H](CCCCN)C(=O)N[C@@H](CC(=O)O)C(=O)N[C@@H](CCC(=O)O)C(N)=O)C(C)C)NC(=O)[C@H](Cc2c[nH]cn2)NC(=O)[C@H](CCCCN)NC1=O) [Compound 158] | 31 % inhib. | 0.43 | 0.43 | 0.84 | 0.43 |  | -1.70E+04 deg cm^2 dmol^−1 | -6.60E+03 deg cm^2 dmol^−1 | -1.24E+04 deg cm^2 dmol^−1 | -2.83E+03 deg cm^2 dmol^−1 | 22 | 
Ac-(cyclo-5,9)-VSKL[ESQLK]KRKQN-NH2 (Ac-VSKLESQLKKRKQN-NH2; lactam 5-9; SMILES CC(=O)N[C@H](C(=O)N[C@@H](CO)C(=O)N[C@@H](CCCCN)C(=O)N[C@@H](CC(C)C)C(=O)N[C@H]1CCC(=O)NCCCC[C@@H](C(=O)N[C@@H](CCCCN)C(=O)N[C@@H](CCCNC(=N)N)C(=O)N[C@@H](CCCCN)C(=O)N[C@@H](CCC(N)=O)C(=O)N[C@@H](CC(N)=O)C(N)=O)NC(=O)[C@H](CC(C)C)NC(=O)[C@H](CCC(N)=O)NC(=O)[C@H](CO)NC1=O)C(C)C) [Compound 151] |  | 0.70 | 0.70 | 0.82 | 0.70 | alpha-helical character equal to that of the linear peptide | -1.62E+04 deg cm^2 dmol^−1 | -9.25E+03 deg cm^2 dmol^−1 | -1.33E+04 deg cm^2 dmol^−1 | -6.45E+03 deg cm^2 dmol^−1 | 20 | 
Ac-(cyclo-6,10)-VSKLR[EQLVK]RKQN-NH2 (Ac-VSKLREQLVKRKQN-NH2; lactam 6-10; SMILES CC(=O)N[C@H](C(=O)N[C@@H](CO)C(=O)N[C@@H](CCCCN)C(=O)N[C@@H](CC(C)C)C(=O)N[C@@H](CCCNC(=N)N)C(=O)N[C@H]1CCC(=O)NCCCC[C@@H](C(=O)N[C@@H](CCCNC(=N)N)C(=O)N[C@@H](CCCCN)C(=O)N[C@@H](CCC(N)=O)C(=O)N[C@@H](CC(N)=O)C(N)=O)NC(=O)[C@H](C(C)C)NC(=O)[C@H](CC(C)C)NC(=O)[C@H](CCC(N)=O)NC1=O)C(C)C) [Compound 152] |  |  | 0.61 | 0.70 | 0.61 |  | -1.50E+04 deg cm^2 dmol^−1 | -7.90E+03 deg cm^2 dmol^−1 | -1.19E+04 deg cm^2 dmol^−1 | -4.85E+03 deg cm^2 dmol^−1 | 47 | strong function blocker
Ac-(cyclo-7,11)-VSKLRS[ELVKK]KQN-NH2 (Ac-VSKLRSELVKKKQN-NH2; lactam 7-11; SMILES CC(=O)N[C@H](C(=O)N[C@@H](CO)C(=O)N[C@@H](CCCCN)C(=O)N[C@@H](CC(C)C)C(=O)N[C@@H](CCCNC(=N)N)C(=O)N[C@@H](CO)C(=O)N[C@H]1CCC(=O)NCCCC[C@@H](C(=O)N[C@@H](CCCCN)C(=O)N[C@@H](CCC(N)=O)C(=O)N[C@@H](CC(N)=O)C(N)=O)NC(=O)[C@H](CCCCN)NC(=O)[C@H](C(C)C)NC(=O)[C@H](CC(C)C)NC1=O)C(C)C) [Compound 153] |  | 0.54 | 0.54 | 0.74 | 0.54 | decreased helicity | -1.02E+04 deg cm^2 dmol^−1 | -6.79E+03 deg cm^2 dmol^−1 | -8.53E+03 deg cm^2 dmol^−1 | -3.68E+03 deg cm^2 dmol^−1 | 29 | 

From patent publication US10562935B2, “Stapled peptides and uses thereof” (London Health Sciences Centre Research Inc., priority 2015, dated 2020)
